Assay results taken from patent US20250154215A1, “PHARMACEUTICAL COMPOSITION FOR TREATING COLITIS OR COLORECTAL CANCER COMPRISING COLON-TARGETED S100A8/A9-DERIVED SPECIFIC PEPTIDE” (Industry-University Cooperation Foundation Hanyang …, priority 2023, published 2025).
“Also recorded” adds a separate entry of the source.

Experiments:
[1] = The results of in vitro plasma stability, microsomal stability, CYP inhibition and PK profile of S100A8/A9 peptides and rCT-S100A8/A9 proteins
Experimental: Table printed on a drawing sheet, Fig. 5B
Title: The results of in vitro plasma stability, microsomal stability, CYP inhibition and PK profile of S100A8/A9 peptides and rCT-S100A8/A9 proteins
The patent's description of the figure: FIGS. 5A and 5B show the drug-like properties of rCT-S100A8/A9. […] Bacteria-purified 6×His-rCT-S100A8/9, rVehicle or rCT was analyzed by Coomassie staining or IB using αHis (bottom, left). BMDMs were incubated with rVehicle, rCT, or rCT-S100A8/9 for the indicated times and at the indicated concentrations, and then cell viability was measured by MTT assay (bottom, right). […] HLM, human liver microsomes; CYP, cytochrome P450. aTmax, arrival time; AUClast, total area under the plasma concentration-time curve from time 0 to the time of the last measurement; Cmax, maximum plasma concentration;
First reader's note: All values were measured after ip dosing of 1 mg/kg in mice (n = 5); the footnote for the raised a is not printed on the sheet, and the title stands once above both tables.

[2] = test system: OxaR-HCT116; assay: Co-IP and Western blot in parental and OxaR-HCT116 cells stimulated with rS100A8/9; format: cell-based
Experimental: FIGS. 11A-11F show rCT-S100A8/A9 ameliorated oxaliplatin-resistant HCT116 xenograft tumor growth. […] Each vertical bar represents the mean±SD of cell viability at each dose. Data is shown as the mean±SD of six experiments. […] WCLs were used for IB including αTLR4, αRAGE, αS100A8, αS100A9, or αActin. […] HCT116 cells were injected subcutaneously into the flanks of nude mice. Tumor length and width were measured using calipers, and tumor volume was calculated every 3 days for 30 days. Representative images of tumors from mice treated with rCT-S100A8/9 on day 15 (middle). Statistical significance was determined by two-way analysis of variance (ANOVA) with Tukey's post hoc test. *P<0.05, ***P<0.001 compared to rVehicle. […] WCLs were used for IB including αTLR4, αRAGE, αS100A8, αS100A9, or αActin. […] Tumors were stained with H&E. Data is representative of seven independent experiments with similar results (FIGS. 11B, 11C, and 11E);
293T, BMDMs, and THP-1 cells were treated as indicated and processed for analysis by GST pulldown, Western blotting, and co-IP analysis. For GST pulldown, 293T cells were harvested and lysed in an NP-40 buffer including a complete protease inhibitor cocktail (Roche, Basel, Switzerland). After centrifugation, the supernatant was pre-cleared using protein A/G beads for two hours at 4° C. The pre-cleared lysates were mixed with a 50% slurry of glutathione-conjugated Sepharose beads (Amersham Biosciences, Amersham, UK), and binding reactions were performed for four hours at 4° C. by incubating the lysates at 4° C. The precipitate was extensively washed with a lysis buffer. Proteins bound to the glutathione beads were eluted by boiling for five minutes in a sodium dodecyl sulfate (SDS) loading buffer. For IP, cells were harvested and lysed in an NP-40 buffer supplemented with a complete protease inhibitor cocktail (Roche, Switzerland). After pre-clearing with protein A/G agarose beads for one hour at 4° C., whole cell lysates were used for IP using the indicated antibodies. Typically, 1 to […] of a commercial antibody was added to 1 ml of the cell lysate, and the resulting mixture was incubated for 8 to 12 hours at 4° C. After adding protein A/G agarose beads for six hours, immunoprecipitates were extensively washed with a lysis buffer and eluted with an SDS loading buffer by boiling for five minutes. For immunoblotting (IB), polypeptides were analyzed by SDS-polyacrylamide gel electrophoresis and transferred to polyvinylidene difluoride (PVDF) membranes (Bio-Rad, Hercules, CA, USA). Immunodetection was performed using specific antibodies. Antibody binding was visualized by chemiluminescence (ECL; Millipore, Burlington, MA, USA) and detected using a Vilber chemiluminescence analyzer (Fusion SL 3; Vilber Lourmat). […]

[3] = DSS-induced chronic colitis mouse model; format: in vivo, mice
Experimental: DSS-induced acute or chronic colitis and AOM/DSS CRC mouse models were prepared using 6-week-old C57BL/6 female mice (Samtako Bio, Osan, Korea). To assess the induction of acute colitis, mice were exposed ad libitum to 3% (w/v) dextran sodium sulfate (molecular weight: 36-50 kDa, MP Biomedicals, Santa Ana, CA, USA) dissolved in drinking water. The mouse models are illustrated in FIGS. 7A, 5E, and 6A. DSS solutions were prepared every two days. […] The humane endpoint for weight loss (requiring euthanasia) was 20% (compared to the original body weight of an animal). Without an approved exception request, body weight loss could not exceed 20%.
The clinical score of colitis was obtained by measuring body weight, fecal occult blood or total blood loss, and stool consistency every other day during the induction of colitis. The clinical score were assessed by two trained investigators who were randomly selected. For immunohistochemical analysis of tissue sections, mouse distal colon tissues were fixed in 10% formalin and embedded in paraffin. Paraffin sections ([…]) were cut and stained with H&E. Histopathological scoring was performed by a certified pathologist (Min-Kyung Kim, Department of Pathology, Kim Min-Kyung Pathology Clinic, Seoul, Korea) who scored each organ section independently without prior knowledge of the treatment group.
Next, the therapeutic effect of rCT-S100A8/A9 on chronic colitis was confirmed. Chronic DSS colitis was induced by three cycles of DSS+water combination, and intraperitoneal rCT-S100A8/A9 injection was performed once a day for three consecutive days of DSS administration in each cycle.

[4] = format: in vitro ADME; conditions: human, 0.5 h
Experimental: Human plasma of each culture tube treated with S100A8/A9 peptide (10 μM) or rCT-S100A8/A9 protein (10 μg/mL) was incubated at 37° C. for 0, 30, and 120 minutes, respectively. At the designated time, an acetonitrile internal standard solution of chlorpropamide was added to each culture tube, and the resulting mixture was shaken with a vortex mixer for five minutes and centrifuged for additional five minutes (14,000 rpm, 4° C.). The supernatant was then injected into an LC-MS/MS system to analyze the plasma stability of the tested substances.

[5] = parental and OxaR-HCT116 cells, Western blot

B1: TWYKIAFQRNRKTWYKIAFQRNRKTWYKIAFQRNRKTWYKIAFQRNRKTWYKIAFQRNRKGGFLVIKGGAHKSHKGGITIITFGGGHHGGFLVIKGGAHKSHKGGITIITFGGGHHGGFLVIKGGAHKSHKGGITIITFGGGHHGG (protein)
chain: TWYKIAFQRNRKTWYKIAFQRNRKTWYKIAFQRNRKTWYKIAFQRNRKTWYKIAFQRNRKGGFLVIKGGAHKSHKGGITIITFGGGHHGGFLVIKGGAHKSHKGGITIITFGGGHHGGFLVIKGGAHKSHKGGITIITFGGGHHGG
modifications: N-terminal 6xHis tag
PK parameters (ip, 1 mg/kg, mice (n = 5))^a | AUClast [1]: 235.82 ± 51.48 ng·h/mL
PK parameters (ip, 1 mg/kg, mice (n = 5))^a | Cmax [1]: 213.12 ± 25.38 ng/mL
PK parameters (ip, 1 mg/kg, mice (n = 5))^a | T1/2 [1]: 1.91 ± 0.42 h
PK parameters (ip, 1 mg/kg, mice (n = 5))^a | Tmax [1]: 0.23 ± 0.0 h
S100-PRR interactions ([2]; OxaR-HCT116, recombinant S100A8/A9 stimulated, 10, 20, 50 μg/ml): inhibited by increasing the concentration of rCT-S100A8/A9
phosphorylation of EGFR, AKT, and NF-κB ([2]; parental and OxaR CRC cells): decreased
expression of epithelial marker (E-cadherin) [2, 5]: increase
expression of mesenchymal markers (N-cadherin and vimentin) [2, 5]: significant decrease
colon damage (H&E staining) ([3]; 2.5% DSS chronic colitis): decreased; also recorded: alleviated
colon length ([3]; 2.5% DSS chronic colitis): recovered
survival rates ([3]; DSS-induced chronic colitis): significantly increased
body weight loss ([3]; i.p. once a day for three consecutive days per DSS cycle): significantly reduced body weight loss
macrophage polarization (M1/M2 markers) ([3]; macrophages and colonic lysates, real-time PCR): not affected
plasma stability, remaining [4]: 100%
